According to US20160177324A1, “NOVEL PROTEIN AND GENE RELATED TO FLAVONOID O-METHYLTRANSFERASE (FOMT) AND THEIR USES THEREFORE” (INSTITUTE OF BOTANY, THE CHINESE ACADEMY OF SCIENCES, priority 2013, published 2016):
Residue numbers refer to the chain shown, from its start. Names and notes keep the numbering of the source.

B1: PtFOMT: similar O-methyltransferase cloned from Paeonia tenuifolia, SEQ ID NO: 4; differs from PsFOMT at positions 13, 85, 87, 205 (protein, listed as Paeonia tenuifolia)
chain: MAESDRKGILKSGALLKYILETSVYPREHEQLKQLRQATVDKYKYWSVMNVPADEGQFLSMLLKIMNAKKTIEVGVFTGYSLLTTARALPTDAKITAIDPDGEAYETGLPFIKKAGVEHKINYIQADAMSVLDDLVTNGKEEGSFDFAFVDADKENYAKYHEPLMKLVKIGGIIGYDNTLWFGSVALSDGDEMKEFQEKGRRIFTEFNTFLAADPRIELAHISIGDGLALCRRLY
B2: PtFOMT-G13E: site-directed mutant of PtFOMT, G13E (protein)
chain: B1 chain with G13E
B3: PtFOMT-R87L: site-directed mutant of PtFOMT, R87L (protein)
chain: B1 chain with R87L
B4: PtFOMT-T205R: site-directed mutant of PtFOMT, T205R (protein)
chain: B1 chain with T205R
B5: PtFOMT-T85A: site-directed mutant of PtFOMT, T85A (protein)
chain: B1 chain with T85A

How the values were obtained:
[1] = Comparison of activities among recombinant polypeptides with site mutagenesis; format: biochemical; details: for Activity (%), portion of recombinant protein activity compared with PsFOMT: Cy3G5G as substrate
Method: The reaction system was according to Hugueney et al. with some modification (Hugueney, P., et al., A novel cation-dependent O-methyltransferase involved in anthocyanin methylation in grapevine. Plant Physiology, 2009. 150(4): p. 2057-2070.). Purified recombinant FOMT (2 μg) was assayed in a final volume of 200 μL containing 200 μM SAM, 1 mM MgCl2, 14 mM β-mercaptoethanol, 100 mM Tris, pH 7.5, and 20 μM flavonoid substrates. Incubation was performed at 35° C. and stopped with 200 μL methanol containing 2% formic acid. For enzyme kinetic studies, purified FOMT was incubated based on the above condition with the exception that a range of substrate concentrations from 5 to 200 μM were used for Km determination. Reaction product was analyzed by a Dionex HPLC system (Sunnyvale, Calif.), equipped with a P680 HPLC pump, an UltiMate 3000 autosampler, a TCC-100 thermostated column compartment and a Dionex PDA100 photodiode array detector. The analytical column was C18 column of ODS 80Ts QA (150 mm×4.6 mm, 5 μm i.d., Tosoh, Tokyo) protected with a C18 guard cartridge (Shanghai ANPEL Scientific Instrument, Shanghai). The following solvent and gradient were used: A, 10% aqueous formic acid; B, methanol; constant gradient from 10 to 36% B within 15 min and back to 10% B in 3 min; the flow rate was 0.8 mL min^−1; Column temperature was maintained at 35° C.; 20 μL of analyte was injected. Chromatograms were obtained at 525 nm for anthocyanins and 350 nm for other flavonoids, and photodiode array spectra were recorded from 200 to 800 nm. Km and Vmax values were calculated from Lineweaver-Burk plots.
To validate the key amino acid responsible for the activity, site-directed mutagenesis was carried out using the PCR method and Fast Mutagenesis System (TransGen), and primer sequences used are given in Table 1. Four constructs were built following the template sequence of PtFOMT, named as PtFOMT-G13E, PtFOMT-T85A, PtFOMT-R87L, and PtFOMT-T205R. The corresponding recombinant proteins were purified and the catalytic activities were examined. […] The other mutants have no significant improved activity compared with PtFOMT. The leucine at 87-position is a vital residue for the methyltransferase activity.

[2] = system: Nicotiana tabacum cv.Nc89; test: Flavonoid O-methyltransferase activity in transgenic tobacco; format: in vivo
Description: The full length genes were introduced with a BamHl site and an XhoI site on 5′- and 3′-end by PCR with primers SEQ No. 5 & 6. The double digested fragment of interest and eukaryotic expression vector pBI121 with BamHl site and an XhoI were ligated. Then the appropriate constructs were introduced into Agrobacterium strain EHA105 by electroporation.
Leaf of Nicotiana tabacum cv.Nc89 plant (Donated by Professor Silan Dai, Beijing Forestry University) was disinfected by 75% ethanol for 30 s, followed by 2% sodium hypochlorite for 3 minutes, and then washed with sterile water for three times. The leaf was cut into squares (25 mm^2) A single colony of Agrobacterium strain EHA105 with pBI121-FOMT construct was used to inoculate with 2 mL of YEB medium (per liter: 5 g of beef extract, 1 g of yeast extract, 5 g of sucrose, and 0.5 g of MgSO4.7H2O), supplemented with 50 mg mL^−1 kanamycin and 25 mg mL^−1 Rifampicin. The culture was incubated at 28° C. until OD600 0.6-0.8, and the bacteria were pelleted by centrifugation at 5000 rpm for 5 minutes. The cells were washed by MS liquid medium and resuspended pellets with appropriate volume of MS liquid. The tobacco leaf squares were dipped into the bacteria solution for 8 minutes and cultivated on MS media containing 2.0 mg L^−1 6-benzylaminopurine (6-BA), 0.2 mg L^−1 1-naphthylacetic acid (NAA), and 500 mg L^−1 ceflomine. The explants were transferred to fresh selected medium after two weeks. When the regenerating plantlets grow to 2 cm, move them to MS media containing 0.2 mg L^−1 NAA to induce root. After four weeks, the transgenic tobacco plantlets were transferred to pots and kept in the greenhouse till flowering. The positive transgenic lines were selected by PCR, and transgenic plantlets with empty plasmid were used as control. The anthocyanins in transgenic petals were detected with an HPLC system.
Appropriate amount of sample (petal, fruits) was powdered with mortars and pestles and extracted for the first time with 2 mL 2% (v/v) formic acid methanol solution shaken in a QL-861 vortex (Kylinbell Lab Instruments, Jiangsu, China), sonicated in KQ-500DE ultrasonic cleaner (Ultrasonic instruments, Jiangsu Kunshan, China) at 20° C. for 20 min, centrifuged in SIGMA 3K30 (SIGMA centrifugers, Germany) (12000 rpm, 10 min), and the supernatant was collected. Additional 2 mL and 1 mL extraction solution was supplemented to the residue, and repeated aforesaid operation for the second and third times. All extract was pooled and filtrated through 0.22 μm reinforced nylon membrane filters (Shanghai ANPEL, Shanghai, China) before the HPLC-DAD and HPLC-ESI-MS^n analyses. Three replicates were performed for each sample. […]
HPLC-ESI-MS^n analysis was carried with an Agilent-1100 HPLC system equipped with a UV detector coupled to a LC-MSD Trap VL ion-trap mass spectrometer via an ESI source (Agilent Technologies, Palo Alto, Calif.). […] The MS conditions were listed as follow: negative-ion (NI) mode; capillary voltage of 3.5 kV; a nebulization pressure of 241.3 kPa; and a gas (N2) temperature of 350° C. with flow rate of 6.0 L min^−1 Capillary offset voltage was 77.2 V. MS spectra were recorded over the range from m/z 50-1000.

Molecule	Activity (%), portion of recombinant protein activity compared with PsFOMT ([1]; Incubation 5 min) [%]	Activity (%), portion of recombinant protein activity compared with PsFOMT ([1]; Incubation 30 min) [%]	flower color compared with control lines ([2]; transgenic tobacco flowers)	methyltransferase function in tobacco petal (new anthocyanin Pn3R detected) ([2]; transgenic tobacco petals vs empty vector)	catalytic activity of site-directed mutants ([1]; recombinant purified proteins)
B1	0	4.2	no obvious difference	performed as a methyltransferase	
B2	0	18.5			
B3	100.7	104.5			regain the activity equal to PsFOMT
B4	0	38.1			
B5	0	14.0			
